{"source": "patent US11697815B2", "about": "“Regulation of gene expression through aptamer-modulated polyadenylation” (MeiraGTx UK II Limited, priority 2016, dated 2023)", "type_in_all_cases": "cell-based", "key": {"[1]": {"test_system": "Renilla luciferase expression", "test": "Renilla luciferase assay of HEK 293 cells transfected with U1_theo riboswitch constructs, with or without theophylline", "protocol": "Transfection: 3.5×10^4 HEK 293 cells were plated in a 96-well flat bottom plate the day before transfection. Plasmid DNA (500 ng) was added to a tube or a 96-well U-bottom plate. Separately, TransIT-293 reagent (Mirus; 1.4 μl) was added to 50 μl Opti-mem I media (Life Technologies), and allowed to sit for 5 minutes at room temperature (“RT”). Then, 50 μl of this diluted transfection reagent was added to the DNA, mixed, and incubated at RT for 20 min. Finally, 7 μl of this solution was added to a well of cells in the 96-well plate.\nRenilla luciferase assay of cultured cells: 24 hours after the media change, plates were removed from the incubator, and equilibrated to RT for several minutes on a lab bench, and the media aspirated. Glo-lysis buffer (Promega, 100 μl, RT) was added, and the plates allowed to remain at room temp for at least 5 minutes. Then, the well contents were mixed by 50 μl trituration, and 20 μl of each well was mixed with 20 μl of Renilla-glo reagent in a solid-white 384-well plate. Ten minutes later, luminescence was measured using a Tecan machine with 500 msec read time. The luciferase activity was expressed as mean relative light unit (RLU)±SD.\nOligonucleotides containing either the full length of sequences of the stem from the stem-loop structure and theophylline aptamer or the truncated sequences of the stem, were synthesized (IDT) and cloned into pRL-SV40 vector using the Gibson Assembly Cloning Kit (NEB). Construct sequences were verified by DNA sequencing (Genewiz).\nTransfection and aptamer ligand treatment: HEK 293 cells were transfected as described in Example 1. Four hours after transfection, the media was aspirated, and new media with or without 3 mM theophylline was added. A Renilla luciferase assay was performed 20 to 24 hours after theophylline treatment as described in Example 1. The induction fold was expressed as the quotient of luciferase activity obtained in the presence of aptamer ligand divided by the value obtained in the absence of the aptamer ligand.\nOligos containing 4 copies of the U1_theo_8_1 sequence in tandem were synthesized (IDT) and cloned using Gibson strategy and cloning kit (NEB). HEK 293 cells were transfected and Renilla luciferase assay was performed as described in Example 4."}, "[2]": {"test_system": "Renilla luciferase expression", "test": "Renilla luciferase assay of HEK 293 cells transfected with U1_theo riboswitch constructs, with or without theophylline", "remark": "listed apart in the source"}, "[3]": {"test_system": "firefly luciferase expression", "test": "Firefly luciferase assay of HEK 293 cells transfected with U1_Gua riboswitch constructs, with or without guanine", "settings": "for fold increase of luciferase activity upon guanine treatment: 500 μM guanine", "text": "Plasmid constructs: The EGFP gene in pEGFP-C1 vector was replaced with firefly luciferase gene coding sequence to generate a pFLuc vector that contains an SV40 early polyadenylation signal sequence. Oligos containing either wild type or mutant U1 binding site from the 5′ splice site of human DHFR exon 2 and xpt-guanine aptamer sequence followed by the complementary sequence of the last 7 nt of the U1 site sequence were synthesized (IDT) and cloned into the pFLuc vector using the Gibson cloning strategy and kit (NEB).\nTransfection and aptamer ligand treatment: HEK 293 cells were transfected as described in Example 1. Four hours after transfection, the media was aspirated, and new media with or without 500 μM guanine was added.\nFirefly luciferase assay of cultured cells: Twenty-four hours after the media change, the plates were removed from the incubator, and equilibrated to RT for several minutes on a lab bench, then aspirated. Glo-lysis buffer (Promega, 100 uL, RT) was added, and the plates allowed to remain at RT for at least 5 minutes. Then, the well contents were mixed by 50 uL trituration, and 20 uL of each sample was mixed with 20 μL of bright-glo reagent (Promega) that had been diluted to 10% in glo-lysis buffer. The 96 wells were spaced on an opaque white 384-well plate. Following a 5 min incubation at RT, luminescence was measured using a Tecan machine with 500 mSec read time. The luciferase activity was expressed as mean relative light unit (RLU)±S.D.\nPlasmid constructs: SV40 early polyadenylation sequence was replaced with human beta globin polyA sequence in pFLuc vector to generate pFLuc_HBGPA. Oligos containing either wild type or mutant U1 binding site from 5′ ss of human DHFR exon 2 and xpt-guanine aptamer sequence followed by the complementary sequence of last 7 nt of U1 site sequence were synthesized (IDT) and cloned into pFLuc_HBGPA vector using Gibson cloning strategy and kit (NEB).\nTransfection and luciferase assay were as described in Example 7."}}, "data": [{"molecule": "U1_theo_8_1: sequential stem mutation of U1_theo_8 in pRL-SV40 (nucleic acid, in pRL-SV40; U1_theo_8_1 in pRL-SV40) DNA: TCAAATCGTTCGTTGAGCGAGTTCTCAAAAATGAACAATAATTCTAGAGCGGCCGCTTCGAGCAGACATGATAAGATACATTGATGAGTTTGGACAAACCAAACCCAGGTAAGTGATACCAGCCGAAAGGCCCTTGGCAGCACTTACCTGGACAACTAGAATGCAGTGAAAAAAATGCTTTATTTGTGAAATTTGTGATGCTATTGCTTTATTTGTAACCATTATAAGCTGCAATAAACAAGTTAACAACAAC", "values": [{"measurement": "induction fold of luciferase activity (theophylline treated / untreated)", "setting": "[1]; 3 mM theophylline, 20 to 24 hours", "result": 1.8, "unit": "fold"}]}, {"molecule": "4 copies of U1-theo_8_1: 4 copies of the U1_theo_8_1 sequence in tandem in the 3′ UTR of pRL-SV40 (nucleic acid, in pRL-SV40 3′ UTR; 4xU1_theo_8_1 in pRL-SV40) DNA: TCAAATCGTTCGTTGAGCGAGTTCTCAAAAATGAACAATAATTCTAGAGCGGCCGCTTCGAGCAGACATGATAAGATACATTGATGAGTTTGGACAAACCAAACCCAGGTAAGTGATACCAGCCGAAAGGCCCTTGGCAGCACTTACCTGGACAACTAGAATGCAGTGAAAAAAGAGTTTGGACAAACCAAACCCAGGTAAGTGATACCAGCCGAAAGGCCCTTGGCAGCACTTACCTGGACAACTAGAATGCAGTGAAAAAAATGCGAGTTTGGACAAACCAAACCCAGGTAAGTGATACCAGCCGAAAGGCCCTTGGCAGCACTTACCTGGACAACTAGAATGCAGTGAAAAAAATGCTTTATTTGTGAGAGTTTGGACAAACCAAACCCAGGTAAGTGATACCAGCCGAAAGGCCCTTGGCAGCACTTACCTGGACAACTAGAATGCAGTGAAAAAAATGCTTTATTTGTGAAATTTGTGATGCTATTGCTTTATTTGTAACCATTATAAGCTGCAATAAACAAGTTAACAACAAC", "values": [{"measurement": "reduction of basal level expression compared to single copy of U1_theo_8_1", "setting": "[1]; no theophylline", "result": 83, "unit": "%"}, {"measurement": "change of luciferase activity after theophylline treatment (in words)", "setting": "[1]; with vs without theophylline", "result": "increased the luciferase activity in a dose-dependent manner"}, {"measurement": "maximal induction fold of luciferase activity", "setting": "[2]; 6 mM theophylline", "result": 4.3, "unit": "fold"}, {"measurement": "luciferase activity relative to 87-9 SL control vector", "setting": "[2]; upon theophylline treatment, maximal at 6 mM", "result": 40, "unit": "%"}]}, {"molecule": "U1_Gua_1: DHFR exon 2 5′ splice site U1 site linked with xpt-guanine aptamer, 149 nt upstream of SV40 early poly(A) in pFLuc (nucleic acid, in pFLuc; U1_Gua_1 wt in pFLuc, DHFR exon 2 5′ splice site U1 site linked with xpt-guanine aptamer, 149 nt upstream of SV40 early poly(A) in pFLuc) DNA: TCATAAAGGCCAAGAAGGGCGGAAAGATCGCCGTGTAAGCCATACCACATTAAGGTAATGTATAATCGCGTGGATATGGCACGCAAGTTTCTACCGGGCACCGTAAATGTCCGACTACATTACTGTAGAGGTTTTACTTGCTTTAAAAAACCTCCCACACCTCCCCCTGAACCTGAAACATAAAATGAATGCAATTGTTGTTGTTAACTTGTTTATTGCAGCTTATAATGGTTACAAATAAAGCAATAGCATCACAAATTTCACAAATAAAGCATTTTTTTCACTGCATTCTAGTTGTGGTTTGTCCAAACTCATCAATGTATCTTAA", "values": [{"measurement": "fold increase of luciferase activity upon guanine treatment", "setting": "[3]; SV40 early poly(A) signal", "result": 2.4, "unit": "fold"}]}, {"molecule": "U1_Gua_2: U1 site linked with xpt-guanine aptamer, 110 nt upstream of SV40 early poly(A) in pFLuc (nucleic acid, in pFLuc; U1_Gua_2 wt in pFLuc, U1 site linked with xpt-guanine aptamer, 110 nt upstream of SV40 early poly(A) in pFLuc) DNA: TCATAAAGGCCAAGAAGGGCGGAAAGATCGCCGTGTAAGCCATACCACATTTGTAGAGGTTTTACTTGCTTTAAAAAACCTCCCACACCTAAGGTAATGTATAATCGCGTGGATATGGCACGCAAGTTTCTACCGGGCACCGTAAATGTCCGACTACATTACCCCCCTGAACCTGAAACATAAAATGAATGCAATTGTTGTTGTTAACTTGTTTATTGCAGCTTATAATGGTTACAAATAAAGCAATAGCATCACAAATTTCACAAATAAAGCATTTTTTTCACTGCATTCTAGTTGTGGTTTGTCCAAACTCATCAATGTATCTTAA", "values": [{"measurement": "fold increase of luciferase activity upon guanine treatment", "setting": "[3]; SV40 early poly(A) signal", "result": 2.0, "unit": "fold"}]}, {"molecule": "U1_Gua_3: U1 site linked with xpt-guanine aptamer, 74 nt upstream of SV40 early poly(A) in pFLuc (nucleic acid, in pFLuc; U1_Gua_3 wt in pFLuc, U1 site linked with xpt-guanine aptamer, 74 nt upstream of SV40 early poly(A) in pFLuc) DNA: TCATAAAGGCCAAGAAGGGCGGAAAGATCGCCGTGTAAGCCATACCACATTTGTAGAGGTTTTACTTGCTTTAAAAAACCTCCCACACCTCCCCCTGAACCTGAAACATAAAATGAATGCAATTGTAAGGTAATGTATAATCGCGTGGATATGGCACGCAAGTTTCTACCGGGCACCGTAAATGTCCGACTACATTACTGTTGTTAACTTGTTTATTGCAGCTTATAATGGTTACAAATAAAGCAATAGCATCACAAATTTCACAAATAAAGCATTTTTTTCACTGCATTCTAGTTGTGGTTTGTCCAAACTCATCAATGTATCTTAA", "values": [{"measurement": "fold increase of luciferase activity upon guanine treatment", "setting": "[3]; SV40 early poly(A) signal", "result": 1.7, "unit": "fold"}]}, {"molecule": "wtU1_Gua_HBGPA: wild type U1 site with xpt-guanine aptamer in pFLuc_HBGPA (human beta globin polyA sequence) (nucleic acid, in pFLuc_HBGPA; wtU1_Gua_HBGPA) DNA: TCATAAAGGCCAAGAAGGGCGGAAAGATCGCCGTGTAAGGATCCAAGCTTATCGATACCGTCGACCTCGAGGTAATGTATAATCGCGTGGATATGGCACGCAAGTTTCTACCGGGCACCGTAAATGTCCGACTACATTACGGCCCAGATCTAATTCACCCCACCAGTGCAGGCTGCCTATCAGAAAGTGGTGGCTGGTGTGGCTAATGCCCTGGCCCACAAGTATCACTAAGCTCGCTTTCTTGCTGTCCAATTTCTATTAAAGGTTCCTTTGTTCCCTAAGTCCAACTACTAAACTGGGGGATATTATGAAGGGCCTTGAGCATCTGGATTCTGCCTAATAAAAAACATTTATTTTCATTGCAATGATGTATTT", "values": [{"measurement": "fold increase of luciferase activity upon guanine treatment", "setting": "[3]; human beta globin polyA sequence (pFLuc_HBGPA)", "result": 2.1, "unit": "fold"}]}, {"molecule": "mutU1_Gua_HBGPA: mutant U1 site with xpt-guanine aptamer in pFLuc_HBGPA (nucleic acid, in pFLuc_HBGPA; mutU1_Gua_HBGPA) DNA: TCATAAAGGCCAAGAAGGGCGGAAAGATCGCCGTGTAAGGATCCAAGCTTATCGATACCGTCGACCTCGATGGAATCTATAATCGCGTGGATATGGCACGCAAGTTTCTACCGGGCACCGTAAATGTCCGACTACATTACGGCCCAGATCTAATTCACCCCACCAGTGCAGGCTGCCTATCAGAAAGTGGTGGCTGGTGTGGCTAATGCCCTGGCCCACAAGTATCACTAAGCTCGCTTTCTTGCTGTCCAATTTCTATTAAAGGTTCCTTTGTTCCCTAAGTCCAACTACTAAACTGGGGGATATTATGAAGGGCCTTGAGCATCTGGATTCTGCCTAATAAAAAACATTTATTTTCATTGCAATGATGTATTT", "values": [{"measurement": "induction of luciferase activity upon guanine treatment (in words)", "setting": "[3]; guanine vs untreated, human beta globin polyA sequence", "result": "didn't induce luciferase activity"}]}]}
